Experimental findings from paper PMC3184956, “How to Change the Oligomeric State of a Circular Protein Assembly: Switch from 11-Subunit to 12-Subunit TRAP Suggests a General Mechanism” (PLoS ONE, 2011) are described below.

The target of data set [1] is Bacillus halodurans trp RNA-binding attenuation protein (TRAP) (Bacillus halodurans). The experiment in a line: native MS; nanoflow electrospray, 100 mM ammonium acetate (pH 7.5), 10 µM L-tryptophan, protein 0.1–0.4 mg/ml.
For data set [2] the target is unchanged. The experiment in a line: crystal structure; hanging drop vapor diffusion at 18°C, protein with 5-15 mM L-tryptophan; data at 120 K; ring oligomer built from the asymmetric unit and crystallographic symmetry.
The target of data set [3] is Bacillus stearothermophilus E71stop TRAP (Bacillus stearothermophilus). The experiment in a line: native MS; nanoflow electrospray, 100 mM ammonium acetate (pH 7.5), 10 µM L-tryptophan, protein 0.1–0.4 mg/ml.
The target is the same in data set [4]. Description: crystal structure; hanging drop vapor diffusion at 18°C, protein with 5-15 mM L-tryptophan; data at 120 K; ring oligomer built from the asymmetric unit and crystallographic symmetry.
Data set [5] concerns the molecule itself. Described as above.
Data set [6] concerns the molecule itself. Description: native MS; nanoflow electrospray, 100 mM ammonium acetate (pH 7.5), 10 µM L-tryptophan, protein 0.1–0.4 mg/ml.

Take “Bacillus halodurans trp RNA-binding attenuation protein (TRAP) (natural protein)”: the stoichiometry N in data set [1] and in data set [2] was 12 subunits in each case.
In the case of “Bacillus stearothermophilus E71stop TRAP (domain or fragment)”, the stoichiometry N in data set [3] and in data set [4] was 12 subunits each time.

B1: Bacillus subtilis K71stop TRAP (domain or fragment, UniProt P19466 1-71, looked up)
chain: MNQKHSSDFVVIKAVEDGVNVIGLTRGTDTKFHHSEKLDKGEVIIAQFTEHTSAIKVRGEALIQTAYGEMK
notes: TRAP of Bacillus subtilis with the last four amino acids removed from the C-terminus (K71stop); Homo-12-mer; also called B. subtilis TRAP K71stop; mutant B. subtilis TRAP; source: QuikChange on a pET9a plasmid containing the wild type gene; produced and purified as described previously [10]; size-exclusion chromatography (Superdex 200); copies: 12
As to B1, the stoichiometry N (commonly a count of units in the complex or per binding partner) in data set [5] was found to be 12 subunits.

B2: Bacillus subtilis V11L TRAP (natural protein, UniProt P19466 1-75, looked up)
chain: MNQKHSSDFVLIKAVEDGVNVIGLTRGTDTKFHHSEKLDKGEVIIAQFTEHTSAIKVRGEALIQTAYGEMKSEKK
notes: TRAP of Bacillus subtilis with the mutation Val11 to Leu; Homo-12-mer by native mass spectrometry; could not be crystallised; also called V11L mutant; B. subtilis V11L TRAP; source: QuikChange on a pET9a plasmid containing the wild type gene; produced and purified as described previously [10]; copies: 12
For the molecule B2, the “stoichiometry N” value in data set [6] is 12 subunits.

B3: Bacillus stearothermophilus TRAP, wild type (natural protein, UniProt Q9X6J6 1-74, looked up)
chain: MYTNSDFVVIKALEDGVNVIGLTRGADTRFHHSEKLDKGEVLIAQFTEHTSAIKVRGKAYIQTRHGVIESEGKK
notes: Homo-11-mer; control of the native mass spectrometry; also called B. stearothermophilus TRAP; TRAP11; source: pET9a plasmid containing the wild type gene; produced and purified as described previously [10]; copies: 11
For the molecule B3, the “stoichiometry N” value in data set [6] was determined as 11 subunits.
